Results published in the supplement of paper PMC9112550, “Optimization of the antimicrobial peptide Bac7 by deep mutational scanning” (BMC Biology, 2022).

Test system: Escherichia coli TOP10
Experiment: shrunken log2 fold change of peptide-encoding DNA abundance (4.5 h post-induction vs induction); higher = less antimicrobial activity (less host growth inhibition)
Settings: time post-induction: 4.5 h; library: site-saturation at positions 5, 18, 19, 20
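Further: peptides expressed intracellularly from a pBAD plasmid library in pooled LB shake-flask culture, induced with 0.3% L-arabinose, DNA abundance read by NGS, three biological replicates, DESeq2 with apeglm shrinkage.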

Sequence | shrunken log2 fold change
RRIRNRPPRLPRPRPRPNFHPRP | -0.048
RRIRNRPPRLPRPRPRPNGEPRP | 0.0257
RRIRNRPPRLPRPRPRPNHCPRP | -0.216
RRIRNRPPRLPRPRPRPNHDPRP | -0.602
RRIRNRPPRLPRPRPRPNHEPRP | -0.00884
RRIRNRPPRLPRPRPRPNKCPRP | -0.466
RRIRNRPPRLPRPRPRPNKRPRP | -0.221
RRIRNRPPRLPRPRPRPNKVPRP | -0.642
RRIRNRPPRLPRPRPRPNLAPRP | -0.137
RRIRNRPPRLPRPRPRPNLIPRP | -0.369
RRIRNRPPRLPRPRPRPNLLPRP | -0.112
RRIRNRPPRLPRPRPRPNMNPRP | -0.265
RRIRNRPPRLPRPRPRPNMQPRP | -0.184
RRIRNRPPRLPRPRPRPNPEPRP | -0.224
RRIRNRPPRLPRPRPRPNPLPRP | 0.0887
RRIRNRPPRLPRPRPRPNPRPRP | 0.286
RRIRNRPPRLPRPRPRPNQAPRP | -0.0207
RRIRNRPPRLPRPRPRPNQFPRP | -0.376
RRIRNRPPRLPRPRPRPNQLPRP | -0.228
RRIRNRPPRLPRPRPRPNQQPRP | -0.0748
RRIRNRPPRLPRPRPRPNQYPRP | -0.712
RRIRNRPPRLPRPRPRPNRQPRP | -0.156
RRIRNRPPRLPRPRPRPNVFPRP | -0.43
RRIRNRPPRLPRPRPRPNWKPRP | -0.0062
RRIRNRPPRLPRPRPRPPCGPRP | 0.317

Sequence | shrunken log2 fold change
RRIRNRPPRLPRPRPRPPDGPRP | 0.313
RRIRNRPPRLPRPRPRPPDPPRP | 0.497
RRIRNRPPRLPRPRPRPPECPRP | 0.015
RRIRNRPPRLPRPRPRPPFKPRP | -0.325
RRIRNRPPRLPRPRPRPPFMPRP | -0.0578
RRIRNRPPRLPRPRPRPPHTPRP | -0.0383
RRIRNRPPRLPRPRPRPPHVPRP | 0.147
RRIRNRPPRLPRPRPRPPIEPRP | 0.0957
RRIRNRPPRLPRPRPRPPKMPRP | -0.168
RRIRNRPPRLPRPRPRPPKTPRP | -0.103
RRIRNRPPRLPRPRPRPPNFPRP | -0.0236
RRIRNRPPRLPRPRPRPPNVPRP | -0.0463
RRIRNRPPRLPRPRPRPPPLPRP | 0.732
RRIRNRPPRLPRPRPRPPRWPRP | 0.147
RRIRNRPPRLPRPRPRPPSEPRP | -0.147
RRIRNRPPRLPRPRPRPPSMPRP | -0.0213
RRIRNRPPRLPRPRPRPPTPPRP | 0.56
RRIRNRPPRLPRPRPRPPWEPRP | -0.0446
RRIRNRPPRLPRPRPRPPWFPRP | 0.349
RRIRNRPPRLPRPRPRPPYMPRP | -1.13
RRIRNRPPRLPRPRPRPQAFPRP | -0.00429
RRIRNRPPRLPRPRPRPQAYPRP | -0.3
RRIRNRPPRLPRPRPRPQCEPRP | 0.0399
RRIRNRPPRLPRPRPRPQCQPRP | -0.0453
RRIRNRPPRLPRPRPRPQDQPRP | -0.222

Sequence | shrunken log2 fold change
RRIRNRPPRLPRPRPRPQEHPRP | 0.422
RRIRNRPPRLPRPRPRPQFGPRP | -0.508
RRIRNRPPRLPRPRPRPQFIPRP | -0.125
RRIRNRPPRLPRPRPRPQFMPRP | -0.709
RRIRNRPPRLPRPRPRPQGMPRP | -0.0261
RRIRNRPPRLPRPRPRPQHGPRP | -0.0487
RRIRNRPPRLPRPRPRPQHIPRP | -0.114
RRIRNRPPRLPRPRPRPQHMPRP | -0.605
RRIRNRPPRLPRPRPRPQHVPRP | 0.000105
RRIRNRPPRLPRPRPRPQHWPRP | 0.13
RRIRNRPPRLPRPRPRPQIRPRP | -0.0373
RRIRNRPPRLPRPRPRPQIYPRP | -0.0394
RRIRNRPPRLPRPRPRPQKFPRP | -0.0476
RRIRNRPPRLPRPRPRPQLSPRP | -0.2
RRIRNRPPRLPRPRPRPQPKPRP | 0.0668
RRIRNRPPRLPRPRPRPQPYPRP | -0.0389
RRIRNRPPRLPRPRPRPQQEPRP | -0.124
RRIRNRPPRLPRPRPRPQQPPRP | 0.0468
RRIRNRPPRLPRPRPRPQQTPRP | -0.0918
RRIRNRPPRLPRPRPRPQSYPRP | 0.0549
RRIRNRPPRLPRPRPRPQWVPRP | 0.00681
RRIRNRPPRLPRPRPRPQWYPRP | -0.209
RRIRNRPPRLPRPRPRPQYEPRP | -0.117
RRIRNRPPRLPRPRPRPQYKPRP | -0.876
RRIRNRPPRLPRPRPRPQYLPRP | -0.123

Sequence | shrunken log2 fold change
RRIRNRPPRLPRPRPRPRAQPRP | 0.188
RRIRNRPPRLPRPRPRPRAVPRP | 1.21
RRIRNRPPRLPRPRPRPRCGPRP | 0.0586
RRIRNRPPRLPRPRPRPRCMPRP | -0.5
RRIRNRPPRLPRPRPRPREQPRP | -0.00697
RRIRNRPPRLPRPRPRPRFTPRP | -0.286
RRIRNRPPRLPRPRPRPRGDPRP | 0.131
RRIRNRPPRLPRPRPRPRIIPRP | -0.425
RRIRNRPPRLPRPRPRPRKEPRP | -0.0425
RRIRNRPPRLPRPRPRPRKPPRP | -0.0565
RRIRNRPPRLPRPRPRPRMSPRP | -0.238
RRIRNRPPRLPRPRPRPRMYPRP | -0.613
RRIRNRPPRLPRPRPRPRNMPRP | -0.171
RRIRNRPPRLPRPRPRPRNQPRP | -0.182
RRIRNRPPRLPRPRPRPRNRPRP | -0.000801
RRIRNRPPRLPRPRPRPRQFPRP | 0.0733
RRIRNRPPRLPRPRPRPRQWPRP | 0.299
RRIRNRPPRLPRPRPRPRSLPRP | 0.0993
RRIRNRPPRLPRPRPRPRSWPRP | 0.201
RRIRNRPPRLPRPRPRPRTIPRP | -0.221
RRIRNRPPRLPRPRPRPRTVPRP | -0.403
RRIRNRPPRLPRPRPRPRVFPRP | -0.036
RRIRNRPPRLPRPRPRPRWAPRP | 0.417
RRIRNRPPRLPRPRPRPRWPPRP | 0.286
RRIRNRPPRLPRPRPRPSAWPRP | -0.135

Sequence | shrunken log2 fold change
RRIRNRPPRLPRPRPRPSAYPRP | -0.42
RRIRNRPPRLPRPRPRPSELPRP | -0.135
RRIRNRPPRLPRPRPRPSEPPRP | -0.0146
RRIRNRPPRLPRPRPRPSFFPRP | -0.367
RRIRNRPPRLPRPRPRPSFGPRP | 0.00557
RRIRNRPPRLPRPRPRPSFSPRP | -0.322
RRIRNRPPRLPRPRPRPSGKPRP | 0.0521
RRIRNRPPRLPRPRPRPSGMPRP | -0.207
RRIRNRPPRLPRPRPRPSHDPRP | -0.516
RRIRNRPPRLPRPRPRPSHKPRP | -0.291
RRIRNRPPRLPRPRPRPSIDPRP | -0.782
RRIRNRPPRLPRPRPRPSIEPRP | -0.214
RRIRNRPPRLPRPRPRPSKLPRP | -0.582
RRIRNRPPRLPRPRPRPSKWPRP | -0.213
RRIRNRPPRLPRPRPRPSLLPRP | -0.19
RRIRNRPPRLPRPRPRPSMGPRP | -0.0455
RRIRNRPPRLPRPRPRPSMPPRP | -0.139
RRIRNRPPRLPRPRPRPSNLPRP | -0.457
RRIRNRPPRLPRPRPRPSNNPRP | -0.96
RRIRNRPPRLPRPRPRPSPGPRP | 0.431
RRIRNRPPRLPRPRPRPSPPPRP | -0.0562
RRIRNRPPRLPRPRPRPSPSPRP | -0.0323
RRIRNRPPRLPRPRPRPSRRPRP | 0.27
RRIRNRPPRLPRPRPRPSTRPRP | 0.326
RRIRNRPPRLPRPRPRPSVWPRP | 0.228

Sequence | shrunken log2 fold change
RRIRNRPPRLPRPRPRPSWGPRP | -0.139
RRIRNRPPRLPRPRPRPSWVPRP | -0.289
RRIRNRPPRLPRPRPRPSYYPRP | -0.877
RRIRNRPPRLPRPRPRPTAHPRP | 0.0105
RRIRNRPPRLPRPRPRPTAWPRP | -0.0125
RRIRNRPPRLPRPRPRPTCAPRP | 0.161
RRIRNRPPRLPRPRPRPTDTPRP | -0.08
RRIRNRPPRLPRPRPRPTFYPRP | -0.376
RRIRNRPPRLPRPRPRPTHCPRP | 0.085
RRIRNRPPRLPRPRPRPTHLPRP | 0.109
RRIRNRPPRLPRPRPRPTHWPRP | 0.661
RRIRNRPPRLPRPRPRPTIYPRP | -0.106
RRIRNRPPRLPRPRPRPTKYPRP | -0.564
RRIRNRPPRLPRPRPRPTLKPRP | 0.0241
RRIRNRPPRLPRPRPRPTLWPRP | 0.326
RRIRNRPPRLPRPRPRPTMSPRP | -0.453
RRIRNRPPRLPRPRPRPTNEPRP | 0.239
RRIRNRPPRLPRPRPRPTNVPRP | 0.0366
RRIRNRPPRLPRPRPRPTPNPRP | 0.185
RRIRNRPPRLPRPRPRPTQMPRP | 0.0452
RRIRNRPPRLPRPRPRPTRQPRP | 0.196
RRIRNRPPRLPRPRPRPTSTPRP | -0.7
RRIRNRPPRLPRPRPRPTVKPRP | -0.00906
RRIRNRPPRLPRPRPRPVDMPRP | -0.104
RRIRNRPPRLPRPRPRPVETPRP | 0.157
